Data set [1] concerns the target T1, BAFF-R (B-cell activating factor receptor) (human, UniProt Q96RJ3 1-76).
T1 sequence: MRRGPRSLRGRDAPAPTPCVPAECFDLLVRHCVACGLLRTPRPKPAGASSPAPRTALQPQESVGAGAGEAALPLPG
Kind of data set: EMSA. For orientation: Mobility shift assays separate free from complexed probe on a gel.

Data set [2] addresses T1, BAFF-R (B-cell activating factor …). The data set can be described thus: filter binding.
Another data set concerns the target BCMA (TNFRSF17) (human, UniProt Q02223 1-54). Kind of data set: EMSA.
Data set [3] concerns the target T1, BAFF-R (B-cell activating factor …). Kind of data set: EMSA. This is another data set of the same source.

Where two headings read alike, the source gives them in different places.

Sequence of BCMA (TNFRSF17) (Q02223 1-54): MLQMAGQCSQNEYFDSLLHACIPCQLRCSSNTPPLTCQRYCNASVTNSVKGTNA

B1: R-1-STAT3 27-mer SWAP chimera (structured_RNA)
RNA 1: GGGAGGACGAUGCGGGAGGCUCAACAAUGAUAGAGCCCGCAAUGUUGAUAGUUGUGCCCAGUCUGCAGACGACUGCCCGAUUUUUUUUUCAGUCGUAUCUUUCUGCAGCUUCCGU
RNA 2: GGAAGCUGCAGAAAGAUACGACUGA
modifications: 2'-F U and C in aptamer-antisense strand; S7 3' ga are DNA
For the molecule B1, the equilibrium dissociation constant (Kd) – broadly, the free concentration of one partner at which half of the binding sites on the other are occupied at equilibrium, for simple one-to-one binding – in data set [1] is 56 nM.

B2: R-14 aptamer (structured_RNA)
RNA: GGGAGGACGAUGCGGAUAACUAUUGUGCUAGAGGGCUUAUUUAUGUGAGCCGGUUGAUAGUUGCGCAGACGACUCGCCCGA
modifications: 2'-F U and C
Regarding B2, the Kd in data set [1] is ~96 nM. Moreover, in data set [2], the binding signal was > 36 % RNA retained.

B3: R-1-STAT3 27-mer OVH chimera (structured_RNA)
RNA 1: GGGAGGACGAUGCGGGAGGCUCAACAAUGAUAGAGCCCGCAAUGUUGAUAGUUGUGCCCAGUCUGCAGACGACUCGCCCGAUUUUUUUUGAGAACGGAAGCUGCAGAAAGAUACGA
RNA 2: GUAUCUUUCUGCAGCUUCCGUUCUC
modifications: 2'-F U and C in aptamer-sense strand
B3 returned a Kd in data set [1] of 35 nM.

B4: R-22 aptamer (structured_RNA)
RNA: GGGAGGACGAUGCGGAUCCUCCGAAGGUCGCGCCAACGUCACACAUUAAGCUUUUGUUCGUCUGCAGACGACUCGCCCGA
modifications: 2'-F U and C
B4 returned a binding signal in data set [2] of 3.6 % RNA retained.

B5: R-1 aptamer (structured_RNA)
RNA: GGGAGGACGAUGCGGGAGGCUCAACAAUGAUAGAGCCCGCAAUGUUGAUAGUUGUGCCCAGUCUGCAGACGACUCGCCCGA
modifications: 2'-F U and C
In the case of B5, the Kd in data set [1] was ~47 nM; in data set [3], 54 nM. In addition, the binding result with BCMA (TNFRSF17) is “no binding”. Also, the binding signal in data set [2] is > 36 % RNA retained.

(Values after PMC3627597.)
